Measurements reported in doi:10.1101/2021.02.24.432656 (bioRxiv, 2021).

Molecular target: T1, bacterially purified STAT1 recombinant protein (human, UniProt P42224 1-750)
T1 sequence: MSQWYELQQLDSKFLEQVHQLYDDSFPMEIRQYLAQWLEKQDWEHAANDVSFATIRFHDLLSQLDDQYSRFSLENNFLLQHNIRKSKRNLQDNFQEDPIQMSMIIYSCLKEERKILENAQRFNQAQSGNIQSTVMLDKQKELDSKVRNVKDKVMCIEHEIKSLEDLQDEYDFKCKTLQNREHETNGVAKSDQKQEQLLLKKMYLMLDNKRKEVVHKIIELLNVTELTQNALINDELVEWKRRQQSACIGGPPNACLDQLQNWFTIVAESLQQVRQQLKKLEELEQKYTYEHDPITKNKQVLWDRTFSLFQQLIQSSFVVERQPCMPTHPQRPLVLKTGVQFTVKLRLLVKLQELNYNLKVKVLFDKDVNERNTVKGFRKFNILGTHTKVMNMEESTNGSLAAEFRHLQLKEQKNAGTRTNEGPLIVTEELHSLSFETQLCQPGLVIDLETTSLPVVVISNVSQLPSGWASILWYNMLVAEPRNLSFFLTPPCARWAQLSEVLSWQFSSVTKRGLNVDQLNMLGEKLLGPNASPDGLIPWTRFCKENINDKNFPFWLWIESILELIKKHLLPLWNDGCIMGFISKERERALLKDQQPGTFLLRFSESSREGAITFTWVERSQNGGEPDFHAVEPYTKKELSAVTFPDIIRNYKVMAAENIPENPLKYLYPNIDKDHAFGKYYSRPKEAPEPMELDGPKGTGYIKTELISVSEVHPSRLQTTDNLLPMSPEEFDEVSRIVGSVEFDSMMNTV
Assay: pull-down

B1: GST-GFP fused with the C-terminal peptide of ORF6 wild type (49-61 amino acids) (domain or fragment)
chain: YSQLDEEQPMEID
- binding result: binds
